Data: the supplement of paper PMC12764529
± gives the half width of the 95% confidence interval.

How the values were obtained:
[1] = folding stability dG unfold (combined trypsin and chymotrypsin); higher = more stable
How it was run: (§1)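 Mini-proteins designed to be under 80 residues and free of cysteine were carried in a PA-tagged cDNA display construct and digested with trypsin and with chymotrypsin. Each protease was applied at 11 threefold-diluted concentrations, alongside a no-protease condition, before sequencing. K50 came from Bayesian fitting of the sequencing counts, and unfolding free energy was obtained by comparing it with a sequence-predicted unfolded-state K50 and a shared folded-state K50, for each protease separately or for both together. Designs were retained only if their AlphaFold2 dimer inter-PAE exceeded 15.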

[2] = folding stability dG unfold from trypsin proteolysis; higher = more stable
How it was run: as §1

[3] = folding stability dG unfold from chymotrypsin proteolysis; higher = more stable
How it was run: as §1

Row | Sequence | folding stability dG unfold [1] [kcal/mol] | folding stability dG unfold [2] [kcal/mol] | folding stability dG unfold [3] [kcal/mol]
1 | SAGGGVTITLKTADGKTLTLEIPGLTSVTVEPDKVTVEFEIPDYRITITFNPSTGTVEIKISHPDEPESAGG [r13_392_TrMRF] | 3.8 ± 0.2 | 3.37 ± 0.19 | 3.93 ± 0.19
2 | SAGGGWKPIGKEEITLPFGIKVTVDIWTWPDGMIMIMIEIEIPVPPPKPPVPPMSPEDMKDMNEDNGSAGGS [r16_6_TrROS] | 3.2 ± 0.43 | 2.06 ± 0.14 | 3.8 ± 0.24
3 | SAGGGYRAVAVFERPDGRREVVFIEFESEEEALREAEEIARRFGLRLKELRVYPVEPLPPVRPELAGSAGGS [r8_364_TrMRF] | 4.88 ± 0.09 | 3.49 ± 0.089 | 5.17 ± 0.083
4 | SAGGHHHHHHHHIDGKFRSEEEAKKLKEEIEKELRAKGYTDIEVEVEVKVEEPPPRRPRPGSPAYTLGSAGG [r13_6_JUSTAS] | 0.955 ± 0.34 | 1.45 ± 0.16 | 0.573 ± 0.11
5 | SAGGIDLDDLPPGDIFIFIKIKMEPVKVDDPDGKEYNRMEIEIFIFRFDPPNGKIQFEPIPMEFYIRSAGGS [r8_486_TrROS] | 3.19 ± 0.23 | 2.83 ± 0.25 | 3.28 ± 0.064
6 | SAGGIDLSKLPKNSIVVITKVKVYPTKVGEPDGEGEGYVEVELRVFRNIPPTGKILSSPLPVKFKIASAGGS [r8_486_TrMRF] | 1.17 ± 0.12 | 1.19 ± 0.04 | 0.987 ± 0.25
7 | SAGGIEELAKALGIEEVEVTSIDPETREVTVRVRVRGPDGEERTLTVKIRLEPAPPPVRTFSEEELKSSAGG [r13_608_TrROS_Hall] | 1.45 ± 0.087 | 1.78 ± 0.029 | 1.06 ± 0.04
8 | SAGGIEVDPEHKHVHIHIPNGNIPELLDLIEDAPGDHVSIHFYNPGNGKPRRFTMPRKEARKFLEQFSAGGS [r16_797_TrROS] | 1.04 ± 0.044 | 1.13 ± 0.033 | 0.834 ± 0.086
9 | SAGGIIEIDPNGWVIRIEMYPPDGKPPKHTIPFPNATPEELIDELKDWADQLPNPGHKVKIDEITPMPSAGG [r13_29_TrROS] | 0.177 ± 0.086 | 0.052 ± 0.071 | 0.372 ± 0.17
10 | SAGGILDLAAERNAVSVEVLEVNPEPPTVTVRLTYRNAAGEPRTATFTVELPPPAPPVPLVLPGEATFSAGG [r13_608_TrMRF] | 1.85 ± 0.089 | 0.735 ± 0.059 | 2.46 ± 0.11
11 | SAGGIRIRDEDGKPRAEYTIYHPDHGMPIEINVYRNKDGNPYIQVEMTGPNGRPKKFTMPADDLNDLSAGGS [r8_24_TrROS] | 0.266 ± 0.082 | -0.862 ± 0.52 | 0.559 ± 0.13
12 | SAGGIRIRFWVPSPEEAREMAETIAKWLMEEHPGAKIKIEPKKVEPNPDNGYYRVEVPIKIVLPGQPISAGG [r13_585_TrROS] | 1.7 ± 0.042 | 1.36 ± 0.051 | 1.89 ± 0.057
13 | SAGGITIELRNPNGEPVEVHLKRDPDGTLELSVHMRGPEGRHYMVTMTIKVKNNGIEIDKFDNWYPLPSAGG [r13_451_TrROS] | 3.79 ± 0.11 | 3.11 ± 0.092 | 4.16 ± 0.084
14 | SAGGITINEDGTITIEVNGKTYTIKLPPGAEITKIEVLEDGTIKITLRINGKTVTLELKVYKEGEEPSAGGS [r16_635_TrROS_Hall] | > 6 | 4.56 ± 0.42 | 6.55 ± 0.68
15 | SAGGKATVTITEVKVETETVTLKYDPETGELVEKTETVTRVEVKTITIEADKNPELAEELLKKLGIESAGGS [r16_467_TrROS_Hall] | 2.56 ± 0.28 | 1.69 ± 0.11 | 2.93 ± 0.25
16 | SAGGKEVKIEIEEKDGKLVIKITVKTEEELKEEIKKLLEEEFGLEVEEVKVEKNKNGEVTIYVVIKKKSAGG [r13_158_TrROS_Hall] | 2.51 ± 0.44 | 1.45 ± 0.17 | 2.64 ± 0.2
17 | SAGGKEVLTVTVEVEIDGVLIRVEAEVTLDEDGNLTVTITRIEIRPLPPPKIDLRDLTDEQRKELGIESAGG [r13_964_TrROS_Hall] | 1.93 ± 0.13 | 2.04 ± 0.096 | 2.02 ± 0.086
18 | SAGGKEYRNPENGQKIPPGDTEEEREKHAREHAKPVIVPIEIPIVIKFGDVIFPIPITFEIPLTPGGSAGGS [r16_387_TrROS] | 0.058 ± 0.32 | 0.0408 ± 0.054 | -0.0327 ± 0.28

Row | Sequence | folding stability dG unfold [1] [kcal/mol] | folding stability dG unfold [2] [kcal/mol] | folding stability dG unfold [3] [kcal/mol]
19 | SAGGKFDIMVKVEPPDGKEEELPIKFDSPEEIIEEARAIAEQHGPGDKLKVEIYYPGTGRPIEFEIPSAGGS [r8_107_TrROS] | 0.336 ± 0.34 | 0.799 ± 0.043 | -0.17 ± 0.18
20 | SAGGKFKIVKIEVEEKTVKVKNKDGKIEKKKVKVIKVKIYKDGKLIKEVTFKSKEDMLNALKELLKKSAGGS [r8_21_TrROS_Hall] | 4.35 ± 0.3 | 3.06 ± 0.11 | 4.53 ± 0.23
21 | SAGGKGPKKIILPLKFKIKTKPNEKKSKIKFKLSLKLFPKAKKVEVKSSIKPLKNNYALLDFDIVIEASAGG [r13_872_TrMRF] | 3.56 ± 0.45 | 3.53 ± 0.23 | 3.6 ± 0.13
22 | SAGGKIEELAKELAKKLNIEKVEVEEKDGKLVVKLVVKDKKTNKYYRITIEVDDDGNIKISIEPLPPSAGGS [r16_433_TrROS_Hall] | 5.12 ± 0.2 | 3.91 ± 0.2 | 5.17 ± 0.12
23 | SAGGKIKIKINGKTYTVEDAEIIEVKKNKNGKKEIIIKIKVNGKTYEIVISEEDLKKIKPGDTITLKSAGGS [r16_638_TrROS_Hall] | 2.96 ± 0.059 | 2.4 ± 0.053 | 3.19 ± 0.045
24 | SAGGKIKIVLSAEELEKKFGKSIEELAAELAKKLFPNKKVKVKKVKIEKDENGKEKLYVEVEIEPEKPSAGG [r13_723_TrROS_Hall] | 3.11 ± 0.17 | 2.91 ± 0.15 | 3.2 ± 0.073
25 | SAGGKITIEIEEEDGYLVIRIREEKEVYDEETGELKKEEKEITIVLPLEEAKKLAEELNLEIEIVEPSAGGS [r8_337_TrROS_Hall] | 2.42 ± 0.23 | 2.09 ± 0.079 | 2.49 ± 0.16
26 | SAGGKIWIPMDFLKEIAEEGNIKEIEVNPDDGDMYTIKFPNLADKFGEPVTISIRRPPGGNPWIEIEPSAGG [r13_163_TrROS] | 0.717 ± 0.15 | 0.107 ± 0.1 | 1.08 ± 0.17
27 | SAGGKKIEIEIVFKEGEKAPSAEEIAKKLLEEIPNIKITSIEIVDVEYDEETGEKYVVVKITIEVEPPSAGG [r13_10_TrROS_Hall] | 3.17 ± 0.28 | 2.96 ± 0.18 | 3.14 ± 0.14
28 | SAGGKKIKAKVIEIKKIGDKVLVTIERPDGSPDEVLIDKKEVAEKITPESEVEIEVFPDGSVKIKVGSAGGS [r16_2_TrMRF] | 2.15 ± 0.19 | 1.96 ± 0.087 | 2.03 ± 0.13
29 | SAGGKKIKITVKELKKKLEEEGYEIEEIEIYNKKTGKKIKTIKEGDVIELPENVKNVVIKVKIKKKKSAGGS [r8_243_TrROS_Hall] | 2.57 ± 0.34 | 2.16 ± 0.19 | 2.86 ± 0.17
30 | SAGGKKIRIVMTEEEIKKLAEALAKELNVEVKIVKVEKKTVFDKNGKPVKTYVVVEIEVKKLPPGVKLSAGG [r13_943_TrROS_Hall] | 1.57 ± 0.16 | 1.3 ± 0.099 | 1.56 ± 0.056
31 | SAGGKKKKKVKIKIEIAIVIPEEDLSEEERKKLAEELAERLKRELAEKLGLSEDEIEEIEVTVYRLPPSAGG [r13_5_TrROS_Hall] | 2.04 ± 0.21 | 1.67 ± 0.092 | 2.33 ± 0.067
32 | SAGGKKKKPKKKIKIKIVKVEKKYDKKTGKLKEVRIEIEIEAESEEEAKKLAEELAKKLNIEVEVKKKSAGG [r13_606_TrROS_Hall] | 2.01 ± 0.32 | 1.28 ± 0.11 | 2.44 ± 0.096
33 | SAGGKKKKTIVIVLEVSEEEAEKIIEALKKELEKKGFKIEKIEVRKVPDKPMVIVTIKLENGEELTFISAGG [r13_421_TrROS_Hall] | 2.44 ± 0.073 | 1.97 ± 0.052 | 2.64 ± 0.055
34 | SAGGKKKKVITVEVPPEATAEELLAALKKADKVFIRTKDGKVREIKVGEKVSPEELKVKPGDTVEIYVSAGG [r13_399_TrROS_Hall] | 1.53 ± 0.24 | 1.12 ± 0.12 | 1.74 ± 0.096
35 | SAGGKKKKVKVKVVKVEKLENGTYKVVLEVEVDGKKITLVKEFKTKEDLEKKPKEIEITVEELKKLLKSAGG [r13_540_TrROS_Hall] | 3.87 ± 0.37 | 2.46 ± 0.13 | 4.32 ± 0.22
